Publication PMC314469, “Protein Interaction Networks by Proteome Peptide Scanning” (PLoS Biology, 2004)

T1: amphyphisin SH3 (AMPH_HUMAN), P49418
T1 chain: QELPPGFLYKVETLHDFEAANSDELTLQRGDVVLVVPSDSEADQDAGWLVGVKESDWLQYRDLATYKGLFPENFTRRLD


What was measured:
[1] = molecular target: endophilin SH3 (SH3G2_HUMAN), Q99962; assay: SPOT array
[2] = molecular target: T1, amphyphisin SH3 (AMPH_HUMAN), P49418; assay: SPOT array

Binder	normalised SPOT signal, Boehringer light units (BLU); mean over the file's lines of this peptide [1]	normalised SPOT signal, Boehringer light units (BLU); mean over the file's lines of this peptide [2]
PSMDFNRPGKRAPW [Q9UFP0 807-820]	460	77.6
PSPLPPKPPFPGPG [Q8WVQ3 114-128]	843	43.5
PTGSLRRPLGPHAP [Q9H3T3 825-838]	35	15.7
PSGHIKRPMNAFMV [Q06945 55-68]	75.8	47.9
PSLLPPRPPPALSL [Q9NRR6 185-199]	5800	82.9
PSPALPRPSRSSPG [Q9UPX1 609-622]	2060	778
PSRLPRRPNDIYVN [O75817 27-40]	41.9	38.8
PSQVPRRPHHTPFQ [Q9HBS1 152-165]	1670	43.1
PSFHIKRPAPRPLA [O60890 702-715]	61.1	18.2
PSNPIRRPISADSA [Q00610 58-71]	47.5	35.4
PRQPPSRPPRRPPW [Q99785 93-107]	8300	6780
PRSVFLRPQRNLES [Q9Y2L9 614-627]	211	3830
PSAPPAKPPSTQRA [O60904 189-203]	254	53.9
PSGPPARPSRSMWD [Q9NXK1 363-376]	2740	3350
PSQVPPRPPPPRLP [Q9UDM5 470-484]	12300	2340
ASPRLRRPKSPKLP [Q96DR7 104-117]	35	110
PSPGPSRPPHGTQA [P43681 443-457]	128	47
PRRGPPRPPGLPYP [AAH31882 46-60]	7980	1100
PRRRPGRPRKLPRL [Q9H4Z2 347-360]	96	32.5
PSRFIRRPSTTISP [O75916 510-523]	364	42
PRQLLTRPHKAEDF [Q99973 2038-2051]	198	104

Binder	normalised SPOT signal, Boehringer light units (BLU); mean over the file's lines of this peptide [1]	normalised SPOT signal, Boehringer light units (BLU); mean over the file's lines of this peptide [2]
ASQSPKKPPAKDPL [Q9NTY7 879-893]	60.6	57.6
PSARPARPPRVRGP [O60342 30-44]	21500	16100
PSPNFKRPYQRFQW [Q9HBF9 133-146]	71.3	43.9
PSNPPPRPPAEARK [P13498 150-164]	991	182
PTSSPHRPHRLPLA [O95327 205-218]	166	248
PSIIFRRPEEAALS [Q9BZD6 162-175]	48.3	34.1
PSESLPRPRRPLPT [Q9P0U4 228-241]	405	264
ASPSLERPEKGAGK [Q13601 2-15]	175	15
PRTLPRRPYKVLLA [O75064 398-411]	865	109
PSRPPRRPPWGRGS [Q99785 97-111]	12300	10100
PSPSPARPPGTSPP [Q8TDP0 823-837]	67.6	31.2
PSQPPPRPPPDYLR [Q9H013 786-800]	1790	68.9
PTGQPRRPRNLAAA [Q00325 36-49]	254	66
PRRPPPRPPSRLSM [Q9BVH8 778-792]	32000	27600
PSRPPSRPSRPPSH [Q99700 584-597]	11400	11900
PRVDPYRPVRLPMQ [Q93074 1800-1813]	175	327
ASPTPKRPSENMLI [O75592 2352-2365]	43.3	43.4
PTEGPRRPPPRPPS [Q9BVH8 774-788]	3050	3310
PSDLPKKPPKPEFG [Q96QH2 28-42]	258	16.4
PSLRPLKPPPPPRQ [Q96DL6 53-67]	4590	876
PSDHIKRPMNAFMV [O95416 4-17]	85	16.2
